The values that follow come from patent US20110151450.

Experiment in all cases: cleavage_in_vitro
For data set [1], the system named is BanII-HF R126A (Bacillus aneurinolyticus). Particulars: NEB4, relative activity 50%.
For data set [2], the target named is T1, BanII-WT (Bacillus aneurinolyticus) (UniProt P19887).
T1 sequence: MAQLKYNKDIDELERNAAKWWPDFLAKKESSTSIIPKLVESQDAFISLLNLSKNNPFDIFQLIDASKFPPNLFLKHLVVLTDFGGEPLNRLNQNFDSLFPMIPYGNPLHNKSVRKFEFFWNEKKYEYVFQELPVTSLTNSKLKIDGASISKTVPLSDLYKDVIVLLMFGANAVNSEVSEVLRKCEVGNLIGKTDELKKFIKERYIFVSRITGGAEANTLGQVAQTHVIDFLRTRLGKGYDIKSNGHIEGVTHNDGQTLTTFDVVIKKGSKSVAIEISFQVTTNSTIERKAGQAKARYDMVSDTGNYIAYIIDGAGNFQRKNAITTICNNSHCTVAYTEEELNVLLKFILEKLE
Particulars: NEB4, relative activity 100%.

Data set [3] deals with T2, BclI-HF Y192F (Bacillus caldolyticus).
T2 sequence: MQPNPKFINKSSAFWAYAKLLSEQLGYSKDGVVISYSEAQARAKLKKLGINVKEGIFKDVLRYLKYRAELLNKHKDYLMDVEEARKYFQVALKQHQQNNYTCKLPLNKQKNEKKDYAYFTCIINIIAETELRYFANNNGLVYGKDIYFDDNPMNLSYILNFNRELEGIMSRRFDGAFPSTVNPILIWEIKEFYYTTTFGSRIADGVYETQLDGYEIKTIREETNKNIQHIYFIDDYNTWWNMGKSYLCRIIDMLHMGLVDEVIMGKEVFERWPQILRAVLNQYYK
The note with it: NEB4, relative activity 100%.

For data set [4], the system named is T3, BclI-WT (Bacillus caldolyticus).
T3 sequence: T2 sequence with F192Y
Particulars: NEB4, relative activity 100%.

For data set [5], the target named is T4, DpnII-HF R199A (Diplococcus pneumoniae) (UniProt P09357).
T4 sequence: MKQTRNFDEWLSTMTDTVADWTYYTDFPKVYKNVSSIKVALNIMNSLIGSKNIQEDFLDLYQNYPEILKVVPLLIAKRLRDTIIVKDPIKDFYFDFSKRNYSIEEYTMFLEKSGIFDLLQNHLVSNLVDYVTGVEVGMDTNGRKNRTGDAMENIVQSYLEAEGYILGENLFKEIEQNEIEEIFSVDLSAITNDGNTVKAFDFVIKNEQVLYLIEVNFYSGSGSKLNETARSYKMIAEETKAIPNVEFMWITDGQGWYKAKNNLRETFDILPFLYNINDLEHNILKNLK
Particulars: NEB4, relative activity 100%.

Data set [6] addresses T5, DpnII-WT (Diplococcus pneumoniae) (UniProt P09357).
T5 sequence: T4 sequence with A199R
Particulars: NEB4, relative activity 25%.

In data set [7] the test system is T6, NruI-HF P22A/R90A (Nocardia rubra).
T6 sequence: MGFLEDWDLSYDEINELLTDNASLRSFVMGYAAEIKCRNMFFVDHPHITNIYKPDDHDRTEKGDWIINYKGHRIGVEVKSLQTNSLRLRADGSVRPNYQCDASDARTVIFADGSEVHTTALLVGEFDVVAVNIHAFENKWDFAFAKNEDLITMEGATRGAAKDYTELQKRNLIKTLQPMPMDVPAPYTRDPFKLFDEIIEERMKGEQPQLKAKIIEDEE
Particulars: NEB4, relative activity 100%.

The test system of the next data set is T7, NruI-WT (Nocardia rubra).
T7 sequence: T6 sequence with A22P, A90R
Particulars: NEB4, relative activity 12.5%.

Data set [8] addresses T8, BanI-HF Q292A (Bacillus aneurinolyticus) (UniProt P19887).
T8 sequence: T1 sequence with Q292A
The note with it: NEB4, relative activity 100%.

For data set [9], the target named is T9, BanI-WT (Bacillus aneurinolyticus) (UniProt P19887).
T9 sequence: T1 sequence
The note with it: NEB4, relative activity 100%.

Data set [10] has as its target T10, BglI-HF K225A (Bacillus globigii) (UniProt O68557).
T10 sequence: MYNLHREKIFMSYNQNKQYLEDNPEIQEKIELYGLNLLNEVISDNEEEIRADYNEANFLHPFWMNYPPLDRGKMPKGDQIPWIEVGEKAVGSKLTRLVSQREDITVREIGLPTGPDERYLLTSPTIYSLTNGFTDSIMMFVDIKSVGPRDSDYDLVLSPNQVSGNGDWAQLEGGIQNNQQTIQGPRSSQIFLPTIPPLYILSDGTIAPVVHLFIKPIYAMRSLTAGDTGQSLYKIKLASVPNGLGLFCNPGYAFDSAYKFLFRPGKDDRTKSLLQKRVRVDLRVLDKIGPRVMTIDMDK
The note with it: NEB4, relative activity 100%.

Data set [11] deals with T11, BglI-WT (Bacillus globigii) (UniProt O68557).
T11 sequence: T10 sequence with A225K
The note with it: NEB4, relative activity 50%.

The test system of data set [12] is T12, BstEII-HF R105A (Bacillus stearothermophilus).
T12 sequence: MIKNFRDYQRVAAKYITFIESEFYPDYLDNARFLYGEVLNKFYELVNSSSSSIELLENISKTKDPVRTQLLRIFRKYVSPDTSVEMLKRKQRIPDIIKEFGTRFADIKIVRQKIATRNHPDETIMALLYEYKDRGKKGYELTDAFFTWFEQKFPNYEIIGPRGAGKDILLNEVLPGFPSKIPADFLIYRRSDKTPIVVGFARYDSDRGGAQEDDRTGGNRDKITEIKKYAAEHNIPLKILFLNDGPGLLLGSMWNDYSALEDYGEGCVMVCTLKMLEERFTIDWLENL
The note with it: NEB4, relative activity 100%.

The test system of data set [13] is T13, BstEII-WT (Bacillus stearothermophilus).
T13 sequence: T12 sequence with A105R
Particulars: NEB4, relative activity 100%.

In data set [14] the test system is T14, MluI-HF E112A/R132A (Micrococcus luteus).
T14 sequence: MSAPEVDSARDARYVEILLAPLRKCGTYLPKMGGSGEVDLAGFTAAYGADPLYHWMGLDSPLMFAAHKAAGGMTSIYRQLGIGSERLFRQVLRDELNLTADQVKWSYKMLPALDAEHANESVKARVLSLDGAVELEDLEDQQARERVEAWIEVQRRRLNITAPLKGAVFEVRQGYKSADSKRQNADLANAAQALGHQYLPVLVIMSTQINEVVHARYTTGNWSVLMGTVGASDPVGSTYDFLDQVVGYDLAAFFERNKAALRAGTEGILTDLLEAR
The note with it: NEB4, relative activity 100%.

The test system of data set [15] is T15, MluI-WT (Micrococcus luteus).
T15 sequence: T14 sequence with A112E, A132R
The note with it: NEB4, relative activity 25%.

The test system of data set [16] is T16, NspI-HF S97A (Nostoc species).
T16 sequence: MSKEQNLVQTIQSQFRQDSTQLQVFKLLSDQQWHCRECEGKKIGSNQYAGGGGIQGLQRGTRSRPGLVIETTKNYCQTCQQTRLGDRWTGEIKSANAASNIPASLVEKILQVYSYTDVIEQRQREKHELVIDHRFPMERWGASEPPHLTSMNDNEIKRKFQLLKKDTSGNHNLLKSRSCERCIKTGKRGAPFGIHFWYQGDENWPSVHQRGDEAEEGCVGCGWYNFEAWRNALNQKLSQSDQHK
Particulars: NEB4, BSA, relative activity 100%.

In another data set the test system is T17, NspI-WT (Nostoc species).
T17 sequence: T16 sequence with A97S
Particulars: NEB4, BSA, relative activity 50%.

Positions count from the first letter of the chain named.

As to dam- lambda DNA, the activity (fidelity index) was over 2000 in data set [1]; 16 in data set [2]; over 2000 in data set [3]; 32 in data set [4]; 8000 in data set [5]; 1 in [6]. Also, the activity (fidelity index) was over 16000 in data set [7] and 32 in the data set on NruI-WT (Nocardia rubra).

For lambda DNA, the activity (fidelity index) is over 2000 in [8]; 16 in data set [9]; over 8000 in data set [10]; 32 in data set [11]; over 2000 in data set [12]; 4 in [13]. Also, the activity (fidelity index) in data set [14] was over 32000; in [15], 32.

For the substance pUC19 plasmid, the results for the activity (fidelity index) (in data set [16]; with NspI-WT (Nostoc species)) were 500 and 32, respectively.
